According to the supplement of paper PMC9112550, “Optimization of the antimicrobial peptide Bac7 by deep mutational scanning” (BMC Biology, 2022):

Each sequence was assayed on Escherichia coli TOP10 (assay: shrunken log2 fold change of peptide-encoding DNA abundance (4.5 h post-induction vs induction); higher = less antimicrobial activity (less host growth inhibition)). Conditions: time post-induction: 4.5 h; library: site-saturation at positions 5, 18, 19, 20.
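Note: peptides expressed intracellularly from a pBAD plasmid library in pooled LB shake-flask culture, induced with 0.3% L-arabinose, DNA abundance read by NGS, three biological replicates, DESeq2 with apeglm shrinkage.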

| Sequence | shrunken log2 fold change |
| --- | --- |
| RRIRVRPPRLPRPRPRPGWWPRP | 0.115 |
| RRIRVRPPRLPRPRPRPGWYPRP | 0.0128 |
| RRIRVRPPRLPRPRPRPGYGPRP | 0.0756 |
| RRIRVRPPRLPRPRPRPGYPPRP | -0.343 |
| RRIRVRPPRLPRPRPRPHCRPRP | 0.199 |
| RRIRVRPPRLPRPRPRPHETPRP | -0.0244 |
| RRIRVRPPRLPRPRPRPHFTPRP | -0.253 |
| RRIRVRPPRLPRPRPRPHHRPRP | 3.34 |
| RRIRVRPPRLPRPRPRPHIAPRP | -0.235 |
| RRIRVRPPRLPRPRPRPHIDPRP | -0.15 |
| RRIRVRPPRLPRPRPRPHIKPRP | -0.389 |
| RRIRVRPPRLPRPRPRPHKLPRP | -0.317 |
| RRIRVRPPRLPRPRPRPHMKPRP | -0.483 |
| RRIRVRPPRLPRPRPRPHNFPRP | -0.418 |
| RRIRVRPPRLPRPRPRPHPMPRP | -0.15 |
| RRIRVRPPRLPRPRPRPHPSPRP | 0.168 |
| RRIRVRPPRLPRPRPRPHPVPRP | -0.201 |
| RRIRVRPPRLPRPRPRPHQKPRP | 0.375 |
| RRIRVRPPRLPRPRPRPHQVPRP | -0.111 |
| RRIRVRPPRLPRPRPRPHRMPRP | -0.457 |
| RRIRVRPPRLPRPRPRPHVEPRP | 0.0127 |
| RRIRVRPPRLPRPRPRPHYAPRP | -0.0814 |
| RRIRVRPPRLPRPRPRPHYKPRP | -0.389 |
| RRIRVRPPRLPRPRPRPIAKPRP | 0.391 |
| RRIRVRPPRLPRPRPRPIALPRP | -0.238 |

| Sequence | shrunken log2 fold change |
| --- | --- |
| RRIRVRPPRLPRPRPRPIAVPRP | 0.0926 |
| RRIRVRPPRLPRPRPRPICCPRP | -0.0831 |
| RRIRVRPPRLPRPRPRPICFPRP | 0.0059 |
| RRIRVRPPRLPRPRPRPICSPRP | -0.154 |
| RRIRVRPPRLPRPRPRPICWPRP | 0.0488 |
| RRIRVRPPRLPRPRPRPIDAPRP | -0.206 |
| RRIRVRPPRLPRPRPRPIDTPRP | -0.48 |
| RRIRVRPPRLPRPRPRPIFLPRP | -0.157 |
| RRIRVRPPRLPRPRPRPIFYPRP | -0.378 |
| RRIRVRPPRLPRPRPRPIGGPRP | 0.801 |
| RRIRVRPPRLPRPRPRPIGHPRP | -0.426 |
| RRIRVRPPRLPRPRPRPIGLPRP | -0.0479 |
| RRIRVRPPRLPRPRPRPIHHPRP | -0.723 |
| RRIRVRPPRLPRPRPRPIKNPRP | -0.361 |
| RRIRVRPPRLPRPRPRPIKVPRP | -0.167 |
| RRIRVRPPRLPRPRPRPIMWPRP | 0.03 |
| RRIRVRPPRLPRPRPRPINPPRP | -0.327 |
| RRIRVRPPRLPRPRPRPIPGPRP | -0.0572 |
| RRIRVRPPRLPRPRPRPIQKPRP | -0.017 |
| RRIRVRPPRLPRPRPRPIQQPRP | 0.00847 |
| RRIRVRPPRLPRPRPRPISAPRP | 1.18 |
| RRIRVRPPRLPRPRPRPIVDPRP | -0.142 |
| RRIRVRPPRLPRPRPRPIVEPRP | -0.0668 |
| RRIRVRPPRLPRPRPRPIVPPRP | -0.349 |
| RRIRVRPPRLPRPRPRPIWFPRP | -0.0241 |

| Sequence | shrunken log2 fold change |
| --- | --- |
| RRIRVRPPRLPRPRPRPIWHPRP | -0.164 |
| RRIRVRPPRLPRPRPRPIWVPRP | 0.154 |
| RRIRVRPPRLPRPRPRPIYDPRP | -0.576 |
| RRIRVRPPRLPRPRPRPIYWPRP | -0.0757 |
| RRIRVRPPRLPRPRPRPKAAPRP | 0.1 |
| RRIRVRPPRLPRPRPRPKAMPRP | 0.0194 |
| RRIRVRPPRLPRPRPRPKCDPRP | 0.0741 |
| RRIRVRPPRLPRPRPRPKCGPRP | 0.0731 |
| RRIRVRPPRLPRPRPRPKELPRP | -0.00952 |
| RRIRVRPPRLPRPRPRPKEQPRP | -0.0164 |
| RRIRVRPPRLPRPRPRPKERPRP | 0.0774 |
| RRIRVRPPRLPRPRPRPKFWPRP | 0.48 |
| RRIRVRPPRLPRPRPRPKGWPRP | 0.684 |
| RRIRVRPPRLPRPRPRPKHYPRP | -0.459 |
| RRIRVRPPRLPRPRPRPKICPRP | -0.0576 |
| RRIRVRPPRLPRPRPRPKKAPRP | 0.157 |
| RRIRVRPPRLPRPRPRPKKSPRP | 0.585 |
| RRIRVRPPRLPRPRPRPKMAPRP | -0.222 |
| RRIRVRPPRLPRPRPRPKMVPRP | -0.109 |
| RRIRVRPPRLPRPRPRPKNGPRP | -0.129 |
| RRIRVRPPRLPRPRPRPKNRPRP | 0.137 |
| RRIRVRPPRLPRPRPRPKNSPRP | -0.34 |
| RRIRVRPPRLPRPRPRPKPWPRP | 0.376 |
| RRIRVRPPRLPRPRPRPKQGPRP | 0.0222 |
| RRIRVRPPRLPRPRPRPKQTPRP | -0.0483 |
